Test results as given in PMC314469, “Protein Interaction Networks by Proteome Peptide Scanning” (PLoS Biology, 2004).

Legend:
[1] = molecular target: endophilin SH3 (SH3G2_HUMAN), Q99962; assay: SPOT array
[2] = molecular target: T1, amphyphisin SH3 (AMPH_HUMAN), P49418; assay: SPOT array
T1 chain: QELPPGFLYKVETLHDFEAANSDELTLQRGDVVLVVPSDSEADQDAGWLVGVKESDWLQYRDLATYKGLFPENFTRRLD

SQGPLQRPSRLVFT [Q9UK00 141-154]
normalised SPOT signal, Boehringer light units (BLU); mean over the file's lines of this peptide [1]: 69.8 | normalised SPOT signal, Boehringer light units (BLU); mean over the file's lines of this peptide [2]: 1370

SQGPPPRPGKPEGP [Q9UCT9 1-14]
normalised SPOT signal, Boehringer light units (BLU); mean over the file's lines of this peptide [1]: 3230 | normalised SPOT signal, Boehringer light units (BLU); mean over the file's lines of this peptide [2]: 106

SQGPPPRPGKPEGQ [Q04118 68-81]
normalised SPOT signal, Boehringer light units (BLU); mean over the file's lines of this peptide [1]: 103 | normalised SPOT signal, Boehringer light units (BLU); mean over the file's lines of this peptide [2]: 120

SQGPPPRPGKPEGS [Q04118 215-228]
normalised SPOT signal, Boehringer light units (BLU); mean over the file's lines of this peptide [1]: 132 | normalised SPOT signal, Boehringer light units (BLU); mean over the file's lines of this peptide [2]: 103

SQIPPQRPQRDQRV [Q13283 290-303]
normalised SPOT signal, Boehringer light units (BLU); mean over the file's lines of this peptide [1]: 15300 | normalised SPOT signal, Boehringer light units (BLU); mean over the file's lines of this peptide [2]: 14100

SQNEPKRPMSGEYG [Q9Y6X4 283-296]
normalised SPOT signal, Boehringer light units (BLU); mean over the file's lines of this peptide [1]: 21.5 | normalised SPOT signal, Boehringer light units (BLU); mean over the file's lines of this peptide [2]: 17

SSSGPKRPQDKVAV [P21399 369-382]
normalised SPOT signal, Boehringer light units (BLU); mean over the file's lines of this peptide [1]: 50.4 | normalised SPOT signal, Boehringer light units (BLU); mean over the file's lines of this peptide [2]: 50.5

SQPGPAKPPAQPSG [Q9Y6V0 287-301]
normalised SPOT signal, Boehringer light units (BLU); mean over the file's lines of this peptide [1]: 130 | normalised SPOT signal, Boehringer light units (BLU); mean over the file's lines of this peptide [2]: 78.5

SQQNFHRPVKVRKK [Q9UI45 537-550]
normalised SPOT signal, Boehringer light units (BLU); mean over the file's lines of this peptide [1]: 99.7 | normalised SPOT signal, Boehringer light units (BLU); mean over the file's lines of this peptide [2]: 52.5

SQQPPSRPPHLPVE [Q9UPQ2 54-68]
normalised SPOT signal, Boehringer light units (BLU); mean over the file's lines of this peptide [1]: 775 | normalised SPOT signal, Boehringer light units (BLU); mean over the file's lines of this peptide [2]: 45.1

SQRRPRRPPTVFRL [Q96Q00 325-339]
normalised SPOT signal, Boehringer light units (BLU); mean over the file's lines of this peptide [1]: 10900 | normalised SPOT signal, Boehringer light units (BLU); mean over the file's lines of this peptide [2]: 1550

SQSFIIRPQKEGER [Q05397 355-368]
normalised SPOT signal, Boehringer light units (BLU); mean over the file's lines of this peptide [1]: 87.4 | normalised SPOT signal, Boehringer light units (BLU); mean over the file's lines of this peptide [2]: 118

SREGPARPYRLKPG [Q9ULL4 1157-1170]
normalised SPOT signal, Boehringer light units (BLU); mean over the file's lines of this peptide [1]: 1200 | normalised SPOT signal, Boehringer light units (BLU); mean over the file's lines of this peptide [2]: 1270

SRGPPRRPPRSVKL [Q96DR3 69-83]
normalised SPOT signal, Boehringer light units (BLU); mean over the file's lines of this peptide [1]: 10200 | normalised SPOT signal, Boehringer light units (BLU); mean over the file's lines of this peptide [2]: 20600

SRKNLKRPIAHLPS [Q13112 270-283]
normalised SPOT signal, Boehringer light units (BLU); mean over the file's lines of this peptide [1]: 33.5 | normalised SPOT signal, Boehringer light units (BLU); mean over the file's lines of this peptide [2]: 60.1

SRLHFGRPRRADYL [Q13629 53-66]
normalised SPOT signal, Boehringer light units (BLU); mean over the file's lines of this peptide [1]: 202 | normalised SPOT signal, Boehringer light units (BLU); mean over the file's lines of this peptide [2]: 842

SRLTLLRPEKDGEA [Q9H7S7 483-496]
normalised SPOT signal, Boehringer light units (BLU); mean over the file's lines of this peptide [1]: 185 | normalised SPOT signal, Boehringer light units (BLU); mean over the file's lines of this peptide [2]: 214

SSTFLQRPIRKPSK [Q9UI27 293-306]
normalised SPOT signal, Boehringer light units (BLU); mean over the file's lines of this peptide [1]: 341 | normalised SPOT signal, Boehringer light units (BLU); mean over the file's lines of this peptide [2]: 4730

SRNIFKRPLGSRIE [P12111 1320-1333]
normalised SPOT signal, Boehringer light units (BLU); mean over the file's lines of this peptide [1]: 0.9 | normalised SPOT signal, Boehringer light units (BLU); mean over the file's lines of this peptide [2]: 30.4

SRSPPKKPPKRTSS [O60585 365-379]
normalised SPOT signal, Boehringer light units (BLU); mean over the file's lines of this peptide [1]: 2210 | normalised SPOT signal, Boehringer light units (BLU); mean over the file's lines of this peptide [2]: 236

SSDWLRRPLGEDNQ [Q9Y6S1 96-109]
normalised SPOT signal, Boehringer light units (BLU); mean over the file's lines of this peptide [1]: 37.4 | normalised SPOT signal, Boehringer light units (BLU); mean over the file's lines of this peptide [2]: 43.6

SSEEPRRPLRSDMV [Q9H6D1 6-19]
normalised SPOT signal, Boehringer light units (BLU); mean over the file's lines of this peptide [1]: 110 | normalised SPOT signal, Boehringer light units (BLU); mean over the file's lines of this peptide [2]: 1890

SSGILKRPQTLAIP [Q9Y2W3 232-245]
normalised SPOT signal, Boehringer light units (BLU); mean over the file's lines of this peptide [1]: 10.4 | normalised SPOT signal, Boehringer light units (BLU); mean over the file's lines of this peptide [2]: 71.5

SSGPPPKPPVSSGS [Q9NR59 803-817]
normalised SPOT signal, Boehringer light units (BLU); mean over the file's lines of this peptide [1]: 122 | normalised SPOT signal, Boehringer light units (BLU); mean over the file's lines of this peptide [2]: 81.4

SSHSPYRPPTNYRN [Q8TEB6 103-117]
normalised SPOT signal, Boehringer light units (BLU); mean over the file's lines of this peptide [1]: 681 | normalised SPOT signal, Boehringer light units (BLU); mean over the file's lines of this peptide [2]: 51.9

SSKPIKRPVLDPFI [Q96AA8 422-435]
normalised SPOT signal, Boehringer light units (BLU); mean over the file's lines of this peptide [1]: 189 | normalised SPOT signal, Boehringer light units (BLU); mean over the file's lines of this peptide [2]: 35.4

SSNTIRRPRNYSVG [O60825 472-485]
normalised SPOT signal, Boehringer light units (BLU); mean over the file's lines of this peptide [1]: 7.4 | normalised SPOT signal, Boehringer light units (BLU); mean over the file's lines of this peptide [2]: 31.8

SSPEPPRPAKRPRR [Q9P2A7 954-967]
normalised SPOT signal, Boehringer light units (BLU); mean over the file's lines of this peptide [1]: 181 | normalised SPOT signal, Boehringer light units (BLU); mean over the file's lines of this peptide [2]: 614

SDGNPRRPSPVLRH [P51172 134-147]
normalised SPOT signal, Boehringer light units (BLU); mean over the file's lines of this peptide [1]: 577 | normalised SPOT signal, Boehringer light units (BLU); mean over the file's lines of this peptide [2]: 60.5

SSPGPKRPGNTLRK [O75962 1703-1716]
normalised SPOT signal, Boehringer light units (BLU); mean over the file's lines of this peptide [1]: 619 | normalised SPOT signal, Boehringer light units (BLU); mean over the file's lines of this peptide [2]: 51.9

SSPLLKRPVRTQAV [Q9Y5M0 381-394]
normalised SPOT signal, Boehringer light units (BLU); mean over the file's lines of this peptide [1]: 195 | normalised SPOT signal, Boehringer light units (BLU); mean over the file's lines of this peptide [2]: 1640

SSRDLSRPPKKGEL [O94930 369-382]
normalised SPOT signal, Boehringer light units (BLU); mean over the file's lines of this peptide [1]: 109 | normalised SPOT signal, Boehringer light units (BLU); mean over the file's lines of this peptide [2]: 119

SSRRPVRPGRRGLG [Q14160 1547-1560]
normalised SPOT signal, Boehringer light units (BLU); mean over the file's lines of this peptide [1]: 1850 | normalised SPOT signal, Boehringer light units (BLU); mean over the file's lines of this peptide [2]: 7270

SSSAPRRPSSLQSL [P39880 1446-1459]
normalised SPOT signal, Boehringer light units (BLU); mean over the file's lines of this peptide [1]: 1050 | normalised SPOT signal, Boehringer light units (BLU); mean over the file's lines of this peptide [2]: 37.2

SSTLPQKPPYSFID [Q9H0N0 213-227]
normalised SPOT signal, Boehringer light units (BLU); mean over the file's lines of this peptide [1]: 27.3 | normalised SPOT signal, Boehringer light units (BLU); mean over the file's lines of this peptide [2]: 56.1

SSTNPFRPQKVSSF [P30670 54-67]
normalised SPOT signal, Boehringer light units (BLU); mean over the file's lines of this peptide [1]: 1350 | normalised SPOT signal, Boehringer light units (BLU); mean over the file's lines of this peptide [2]: 77.5

SSVALKRPPPAPPV [P78325 741-754]
normalised SPOT signal, Boehringer light units (BLU); mean over the file's lines of this peptide [1]: 21.2 | normalised SPOT signal, Boehringer light units (BLU); mean over the file's lines of this peptide [2]: 24.3

SSVRPPRPKKEPQT [Q9H875 7-20]
normalised SPOT signal, Boehringer light units (BLU); mean over the file's lines of this peptide [1]: 1060 | normalised SPOT signal, Boehringer light units (BLU); mean over the file's lines of this peptide [2]: 2350

SSYTFKRPVTRITP [Q8WWY6 31-44]
normalised SPOT signal, Boehringer light units (BLU); mean over the file's lines of this peptide [1]: 89.6 | normalised SPOT signal, Boehringer light units (BLU); mean over the file's lines of this peptide [2]: 18.6

SDKAFSRPDKLRLH [Q9NQV6 563-576]
normalised SPOT signal, Boehringer light units (BLU); mean over the file's lines of this peptide [1]: 54.6 | normalised SPOT signal, Boehringer light units (BLU); mean over the file's lines of this peptide [2]: 117

STAGPLRPPPPGAG [Q9Y6T1 410-424]
normalised SPOT signal, Boehringer light units (BLU); mean over the file's lines of this peptide [1]: 1850 | normalised SPOT signal, Boehringer light units (BLU); mean over the file's lines of this peptide [2]: 61.4

STQSLKRPGTSQAG [O94820 555-568]
normalised SPOT signal, Boehringer light units (BLU); mean over the file's lines of this peptide [1]: 5.6 | normalised SPOT signal, Boehringer light units (BLU); mean over the file's lines of this peptide [2]: 42
